The record followed here is PMC3942068, “Pharmacological characteristics and efficacy of a novel anti-angiogenic antibody FD006 in corneal neovascularization” (BMC Biotechnology, 2014).

For test [1], the target named is T1, Vascular endothelial growth factor (VEGF) (Homo sapiens (assumed), UniProt P15692-4). Kind of test: cell-based or functional assay.
Test [2] addresses T1, Vascular endothelial growth factor …. The experiment in a line: BLI; Octet RED; anti-human IgG biosensor pre-saturated with bevacizumab or FD006 (10 ug/ml); VEGF at 10, 3 and 1 ug/ml in solution; 30°C, PBS; association 5 min, dissociation 10 min; non-linear global fit. The following applies: both partners purified.

T1 sequence (P15692 whole entry): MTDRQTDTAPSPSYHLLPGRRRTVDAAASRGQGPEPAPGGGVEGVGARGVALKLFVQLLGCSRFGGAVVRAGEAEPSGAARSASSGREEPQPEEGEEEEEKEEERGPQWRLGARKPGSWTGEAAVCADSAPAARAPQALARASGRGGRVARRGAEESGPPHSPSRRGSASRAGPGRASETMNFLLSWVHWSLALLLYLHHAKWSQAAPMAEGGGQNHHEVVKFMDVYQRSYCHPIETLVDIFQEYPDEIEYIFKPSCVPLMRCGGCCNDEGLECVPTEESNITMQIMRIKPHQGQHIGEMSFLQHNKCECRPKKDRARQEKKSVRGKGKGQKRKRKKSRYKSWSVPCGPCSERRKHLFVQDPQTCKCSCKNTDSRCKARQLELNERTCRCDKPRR

B1: FD006 (antibody, V domains shown)
VH: EVQLVQSGGGLVKPGGSLRLSCAASGFTLNASWIHWVRQAPGKGLEWVGAIYPYSGYSNYADSVKGRFTISADTSKNTLYLQMNSLRAEDTAVYYCARWGHSTSPYSAMDYWGQGTLVTVSS
VL: DIVMTQSPSSLSVSLGERVTITCRASQVLSRSLAWYQQKPGKAPKLLIYAASNVASGVPSRFSGSGSGTDFTLTISSLQPEDFATYYCQQSNTSPVTFGQGTKVEIK
notes: VH of FD006; heavy chain constant region of the full IgG; VL of FD006; light chain constant region of the full IgG; also called novel anti-VEGFA IgG; anti-VEGF monoclonal antibody FD006; source: recombinant vector transfected into mammalian cells, purified; prepared in our lab
As for B1, the “IC50 of inhibition of VEGF-induced proliferation of HUVEC (antibody pre-incubated with 10 ng/ml VEGF, 72 h, CCK8)” value in test [1] was around 0.031 µg/mL. In test [2], this molecule came in with an equilibrium dissociation constant (Kd) of 0.311 nM, an off-rate constant (koff) of 4.59e-05 s⁻¹ and an on-rate constant (kon) of 148000 M⁻¹ s⁻¹.

The Kd is a measure of binding affinity in units of concentration. The koff is the rate constant with which the complex falls apart. Low values mean slow dissociation, high ones fast dissociation. As a reminder, the kon is the rate constant with which the complex forms. A high value points to fast association.
